Paper PMC11266248
pKd: −log10 of the molar value. “And” between values parts separate entries of the source, which are not always exact repeats. Equal entries are not always repeated.

Tests used:
[1] = biological target: recombinant factor H-like protein 1 (human) (UniProt P08603); assay: SPR; Biacore T100, CM5 chip; FH (750 RU), rFHL-1 or rFH15-20 (200 RU) amine-coupled as ligands; CspZ or FhbA as analytes; PBS with 0.05% Tween20, 25 °C, 30 µl/min; single-cycle and multiple-cycle kinetics, Langmuir 1:1 model; in duplicate
[2] = biological target: factor H binding A (FhbA) from Borrelia hermsii (Borrelia hermsii); assay: LC-HRMS (ESI-Q-TOF); ACE C4 column, 0.1% formic acid/acetonitrile gradient, ESI+, deconvolution with UniDec
[3] = biological target: factor H binding A (FhbA) from Borrelia hermsii (Borrelia hermsii); assay: SEC-MALS; Superdex 200 increase 10/300 GL in PBS, 0.7 mL/min; 100 µL injected at about 3.75 mg/mL (CspZ) or 2.50 mg/mL (FhbA)
[4] = biological target: purified human complement factor H from human plasma/serum (human) (UniProt P08603); assay: SPR; Biacore T100, CM5 chip; FH (750 RU), rFHL-1 or rFH15-20 (200 RU) amine-coupled as ligands; CspZ or FhbA as analytes; PBS with 0.05% Tween20, 25 °C, 30 µl/min; single-cycle and multiple-cycle kinetics, Langmuir 1:1 model; in duplicate
[5] = biological target: recombinant factor H SCR15-20 (human) (UniProt P08603); assay: as above
recombinant factor H SCR15-20 (human), sequence (P08603 860-1231): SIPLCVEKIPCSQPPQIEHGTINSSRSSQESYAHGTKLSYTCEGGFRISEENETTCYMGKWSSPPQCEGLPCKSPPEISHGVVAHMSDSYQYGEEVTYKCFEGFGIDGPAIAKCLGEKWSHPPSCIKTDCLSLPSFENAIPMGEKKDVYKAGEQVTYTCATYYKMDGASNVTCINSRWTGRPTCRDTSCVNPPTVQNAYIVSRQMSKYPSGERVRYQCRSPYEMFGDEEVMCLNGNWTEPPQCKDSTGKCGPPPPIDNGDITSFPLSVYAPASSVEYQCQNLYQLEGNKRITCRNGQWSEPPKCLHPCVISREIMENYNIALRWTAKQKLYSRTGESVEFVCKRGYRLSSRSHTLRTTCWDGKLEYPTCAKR

recombinant factor H-like protein 1 (human), sequence (P08603 other isoform, or with tags, fused parts or gaps): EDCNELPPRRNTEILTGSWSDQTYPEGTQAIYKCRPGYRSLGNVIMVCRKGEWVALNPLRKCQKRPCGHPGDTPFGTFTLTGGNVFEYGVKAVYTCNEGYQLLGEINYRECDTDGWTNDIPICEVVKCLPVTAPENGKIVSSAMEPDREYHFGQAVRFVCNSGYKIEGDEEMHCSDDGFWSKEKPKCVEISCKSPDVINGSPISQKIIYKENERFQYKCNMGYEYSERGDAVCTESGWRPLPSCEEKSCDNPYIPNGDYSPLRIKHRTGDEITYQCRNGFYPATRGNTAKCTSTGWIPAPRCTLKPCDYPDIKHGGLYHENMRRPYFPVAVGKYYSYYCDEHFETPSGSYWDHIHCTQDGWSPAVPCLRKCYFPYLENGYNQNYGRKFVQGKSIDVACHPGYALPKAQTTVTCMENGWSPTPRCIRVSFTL
purified human complement factor H from human plasma/serum (human), sequence (P08603 19-1231): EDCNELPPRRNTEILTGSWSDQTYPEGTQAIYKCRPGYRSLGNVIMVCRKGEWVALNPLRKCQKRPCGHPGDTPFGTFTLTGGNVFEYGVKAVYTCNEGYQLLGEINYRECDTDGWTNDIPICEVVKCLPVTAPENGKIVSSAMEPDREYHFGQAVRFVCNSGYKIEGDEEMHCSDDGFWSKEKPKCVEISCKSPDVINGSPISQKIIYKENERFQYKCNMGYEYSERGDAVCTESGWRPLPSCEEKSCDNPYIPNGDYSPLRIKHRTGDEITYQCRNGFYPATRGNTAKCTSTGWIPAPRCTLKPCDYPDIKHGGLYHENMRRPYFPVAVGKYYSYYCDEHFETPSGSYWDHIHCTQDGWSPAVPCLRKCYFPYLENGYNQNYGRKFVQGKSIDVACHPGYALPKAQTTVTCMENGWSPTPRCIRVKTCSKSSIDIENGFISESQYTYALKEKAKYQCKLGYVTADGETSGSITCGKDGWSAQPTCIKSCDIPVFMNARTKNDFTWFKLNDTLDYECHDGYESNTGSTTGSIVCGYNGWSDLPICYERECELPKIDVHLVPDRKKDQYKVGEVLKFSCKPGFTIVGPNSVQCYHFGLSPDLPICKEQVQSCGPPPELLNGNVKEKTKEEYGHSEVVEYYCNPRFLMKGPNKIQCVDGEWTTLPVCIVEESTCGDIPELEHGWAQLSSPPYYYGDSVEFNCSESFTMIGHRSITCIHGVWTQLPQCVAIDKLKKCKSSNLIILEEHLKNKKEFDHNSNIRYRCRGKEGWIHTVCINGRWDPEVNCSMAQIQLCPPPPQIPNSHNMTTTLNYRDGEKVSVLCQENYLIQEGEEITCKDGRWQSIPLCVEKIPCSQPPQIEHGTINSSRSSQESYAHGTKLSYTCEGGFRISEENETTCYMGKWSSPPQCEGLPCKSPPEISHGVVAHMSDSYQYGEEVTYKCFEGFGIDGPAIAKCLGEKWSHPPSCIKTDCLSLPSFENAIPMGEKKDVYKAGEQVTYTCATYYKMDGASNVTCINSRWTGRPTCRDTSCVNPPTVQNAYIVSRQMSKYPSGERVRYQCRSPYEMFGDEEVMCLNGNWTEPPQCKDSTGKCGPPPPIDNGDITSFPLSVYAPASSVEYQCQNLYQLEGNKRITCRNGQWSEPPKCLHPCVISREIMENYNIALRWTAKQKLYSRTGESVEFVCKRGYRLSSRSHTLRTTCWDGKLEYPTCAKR

Substance | pKd [1] | koff [1] [s⁻¹] | kon [1] [M⁻¹ s⁻¹] | stoichiometry N [2] | representation of the dimer peak (46.2 kDa) in the sample (%) [3] [%] | representation of the pentamer peak (119.0 kDa) in the sample (%) [3] [%] | representation of the trimer peak (71.7 kDa) in the sample (%) [3] [%] | stoichiometry N [3] | pKd [4] | koff [4] [s⁻¹] | kon [4] [M⁻¹ s⁻¹] | pKd [5] | koff [5] [s⁻¹] | kon [5] [M⁻¹ s⁻¹]
CspZ from Borrelia burgdorferi sensu stricto (complement regulator-acquiring surface protein 2) (from UniProt O50665 1-236) (natural protein) | 10.36 | 3.1e-05 | 720000 | – | – | – | – | – | – | – | – | – | – | –
factor H binding A (FhbA) from Borrelia hermsii (natural protein) | 7.37 | 6.74e-05 | 1570 | 2 | 27 | 1 | 6 | 2 and 3 and 5 | 8.96 | 0.000268 | 246000 | 8.47 | 0.000266 | 85400
